# According to PMC3477478:
# Substrate: CC(=O)O
# Experiment: purified protein
# Conditions: 10 mM ATP, 0.47 mM HSCoA, 10 mM MgCl2, 120 mM hydroxylamine, 10 mM reduced glutathione, Tris/HCl pH 7.5, 37 °C, apparent Km
protein,measurement,value
"K. stuttgartiensis ACS (kustc1128), AMP-forming acetyl-CoA synthetase (Candidatus Kuenenia stuttgartensis) (protein) MNKTEIINKHPEAFNLICYEDQHKNFSWETVKKELGVGGNKVNIAYEAIDKHATTWRKNKVALYWEGSDGTHLKYTFQELKILSDKCANMLQSLGVGKGDRVFLFLPRLPELFINMIAIAKLGAISGPMFSAFGPDAVRDRLQNSEAKVLITTPELKERVDAVLWELPKLERIVLVSVKEDYELEEGNVCYKTLMKDAPERFEMEWMDMEDPLYLLYTSGTTGKPKGITHVHNDMISYYITTKWSLDLRDDDIYWCTADPGWVTGTVYGMWGPWLNGVSMYIYDGRFDVNKWYEAIQSYKITVWYTAPTALRMLMKSGDYLVAQYDLESLRYICSVGEPLNPEVIKWGMNVYNLPIHDTWWQTETGSIMIANYPCIPIKPGSMGKPFPGIKAAIIDSEGNELPDGHHGILALKPGWPSMLRKVWGDEGRFNEYFNITGWYTTGDTAYKDEEGYFWFVGRADDVINTSGHRVGPFEVESALLEHRAVAEAGVIGKPDPERGEIIKAFIALKEGFKPSSELGEEIKKFIKHHLAAHAYPREIEFCENLPKTRSGKIMRRLLKAKDLGLPTGDISTLED",Km,0.2 mM
